The results in this text go back to PMC8229956.

Experiment [1] has as its target Oryza sativa TIR1 wild type with nuclear localisation signal (OsTIR1^WT-NLS) (Oryza sativa).
Experiment [2] shares this target. This is another data set of the same source.

With “Rad52-AID-V5 (from UniProt P93830 1-229)”, the reduction in Rad52-AID-V5 protein level (anti-V5 immunoblot of total extract, normalised to tubulin) in cells expressing OsTIR1^WT in the absence of NAA, against rad52-AID-V5 cells with no OsTIR1 in experiment [1] stood at 14%.
On to Mcm4-AID-V5 (from UniProt P93830 1-229), for which the reduction in Mcm4-AID-V5 protein level (anti-V5 immunoblot of total extract, normalised to tubulin) in cells expressing OsTIR1^WT in the absence of NAA, against cells with no OsTIR1 in experiment [2] came out at 14%.
